In patent US20180244760A1:

Columns and labels:
[1] = molecular target: Clostridium difficile toxin A (TcdA) (Clostridium difficile) (UniProt P16154); assay: ELISA, plate coated with 1 ug/ml TcdA
[2] = molecular target: Clostridium difficile toxin A (TcdA) (Clostridium difficile) (UniProt P16154); assay: cell-based or functional assay

Sequence of Clostridium difficile toxin A (TcdA) (Clostridium difficile) (P16154 whole entry): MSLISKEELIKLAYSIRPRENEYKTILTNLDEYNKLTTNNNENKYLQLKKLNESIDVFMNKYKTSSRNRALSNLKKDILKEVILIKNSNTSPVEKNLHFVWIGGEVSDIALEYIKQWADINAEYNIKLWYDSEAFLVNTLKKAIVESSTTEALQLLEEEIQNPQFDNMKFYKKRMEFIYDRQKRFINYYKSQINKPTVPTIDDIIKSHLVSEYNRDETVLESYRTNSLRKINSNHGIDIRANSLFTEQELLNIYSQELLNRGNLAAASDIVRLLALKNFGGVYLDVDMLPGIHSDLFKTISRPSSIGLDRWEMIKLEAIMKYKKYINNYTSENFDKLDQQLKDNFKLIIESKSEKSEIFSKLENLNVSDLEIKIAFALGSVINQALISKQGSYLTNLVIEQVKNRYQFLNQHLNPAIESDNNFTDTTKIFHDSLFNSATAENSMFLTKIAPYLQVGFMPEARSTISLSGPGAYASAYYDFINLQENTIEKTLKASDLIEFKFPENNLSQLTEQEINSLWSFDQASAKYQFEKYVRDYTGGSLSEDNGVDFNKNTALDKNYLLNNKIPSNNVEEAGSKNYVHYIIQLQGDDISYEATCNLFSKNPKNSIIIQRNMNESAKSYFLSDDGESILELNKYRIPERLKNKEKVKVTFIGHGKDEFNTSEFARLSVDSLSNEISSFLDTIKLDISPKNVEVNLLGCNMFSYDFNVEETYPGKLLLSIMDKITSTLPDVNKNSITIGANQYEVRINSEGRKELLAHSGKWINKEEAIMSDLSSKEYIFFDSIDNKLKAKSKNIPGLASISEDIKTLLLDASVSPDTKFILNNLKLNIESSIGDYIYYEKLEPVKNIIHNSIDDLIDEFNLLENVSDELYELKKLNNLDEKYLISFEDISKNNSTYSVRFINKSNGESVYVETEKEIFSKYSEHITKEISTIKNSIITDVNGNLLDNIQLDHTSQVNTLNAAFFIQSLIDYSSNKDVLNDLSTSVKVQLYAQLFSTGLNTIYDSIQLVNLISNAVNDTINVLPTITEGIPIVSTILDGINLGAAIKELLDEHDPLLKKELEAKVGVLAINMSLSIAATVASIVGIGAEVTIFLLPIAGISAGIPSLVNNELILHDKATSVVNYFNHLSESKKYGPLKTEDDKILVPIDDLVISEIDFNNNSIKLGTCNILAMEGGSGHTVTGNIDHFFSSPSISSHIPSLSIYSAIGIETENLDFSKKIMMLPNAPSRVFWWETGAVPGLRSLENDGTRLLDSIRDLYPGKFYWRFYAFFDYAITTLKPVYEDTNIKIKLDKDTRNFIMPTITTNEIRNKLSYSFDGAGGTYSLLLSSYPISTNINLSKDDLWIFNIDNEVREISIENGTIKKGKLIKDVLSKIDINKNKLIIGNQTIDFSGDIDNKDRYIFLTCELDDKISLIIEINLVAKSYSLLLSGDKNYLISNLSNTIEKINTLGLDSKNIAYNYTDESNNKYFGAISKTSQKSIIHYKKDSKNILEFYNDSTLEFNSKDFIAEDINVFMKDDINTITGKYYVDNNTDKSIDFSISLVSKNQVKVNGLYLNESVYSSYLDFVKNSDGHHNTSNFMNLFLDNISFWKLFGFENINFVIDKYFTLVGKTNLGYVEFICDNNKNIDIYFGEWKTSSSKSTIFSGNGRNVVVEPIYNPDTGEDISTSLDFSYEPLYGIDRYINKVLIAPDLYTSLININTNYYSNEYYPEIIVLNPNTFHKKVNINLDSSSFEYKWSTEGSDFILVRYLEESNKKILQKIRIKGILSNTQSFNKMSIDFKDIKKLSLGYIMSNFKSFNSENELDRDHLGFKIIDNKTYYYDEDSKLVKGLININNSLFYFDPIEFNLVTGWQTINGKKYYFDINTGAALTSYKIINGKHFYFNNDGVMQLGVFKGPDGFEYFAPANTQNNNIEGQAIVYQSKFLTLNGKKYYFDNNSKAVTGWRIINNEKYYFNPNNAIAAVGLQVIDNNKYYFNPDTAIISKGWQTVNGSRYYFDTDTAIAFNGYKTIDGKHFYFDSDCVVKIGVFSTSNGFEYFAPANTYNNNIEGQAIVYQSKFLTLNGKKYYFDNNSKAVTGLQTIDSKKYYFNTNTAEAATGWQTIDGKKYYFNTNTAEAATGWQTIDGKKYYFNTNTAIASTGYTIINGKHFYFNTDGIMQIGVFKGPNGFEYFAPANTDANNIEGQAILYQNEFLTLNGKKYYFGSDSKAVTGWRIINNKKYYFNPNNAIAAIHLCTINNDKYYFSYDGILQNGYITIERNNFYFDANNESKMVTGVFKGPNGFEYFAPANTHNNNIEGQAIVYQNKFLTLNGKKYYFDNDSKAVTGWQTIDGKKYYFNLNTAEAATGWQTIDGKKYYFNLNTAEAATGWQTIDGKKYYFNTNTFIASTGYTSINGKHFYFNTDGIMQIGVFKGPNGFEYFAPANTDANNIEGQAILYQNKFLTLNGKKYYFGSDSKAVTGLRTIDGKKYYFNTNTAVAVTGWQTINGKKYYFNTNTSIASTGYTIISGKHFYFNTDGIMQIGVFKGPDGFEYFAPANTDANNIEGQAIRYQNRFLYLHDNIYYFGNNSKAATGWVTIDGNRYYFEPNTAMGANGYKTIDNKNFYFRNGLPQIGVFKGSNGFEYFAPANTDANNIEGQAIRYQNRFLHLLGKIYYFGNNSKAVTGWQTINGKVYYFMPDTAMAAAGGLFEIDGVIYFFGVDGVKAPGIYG

Q: What does the source list for “Merck anti-TcdA human monoclonal antibody”?
A: EC50 (read off the curve) [1]: 2 ng/mL; minimal dose of antibody protecting Vero cells from TcdA-induced cell rounding [2]: > 10 nM
